According to publication doi:10.1101/2023.12.13.571504 (bioRxiv, 2023):

Target: the molecule itself
Experiment: cross-linking

Protein | stoichiometry N | binding result
msfGFP-GRP8^WT (Arabidopsis thaliana Glycine-Rich RNA-Binding Protein 8 fused to monomeric superfolder GFP) (natural protein, UniProt Q03251 1-169, looked up) MSEVEYRCFVGGLAWATNDEDLQRTFSQFGDVIDSKIINDRESGRSRGFGFVTFKDEKAMRDAIEEMNGKELDGRVITVNEAQSRGSGGGGGGRGGSGGGYRSGGGGGYSGGGGGGYSGGGGGGYERRSGGYGSGGGGGGRGYGGGGRREGGGYGGGDGGSYGGGGGGW | 2 | –
msfGFP-GRP8^R7A (natural protein, Arabidopsis thaliana, UniProt Q03251 1-169, looked up) MSEVEYACFVGGLAWATNDEDLQRTFSQFGDVIDSKIINDRESGRSRGFGFVTFKDEKAMRDAIEEMNGKELDGRVITVNEAQSRGSGGGGGGRGGSGGGYRSGGGGGYSGGGGGGYSGGGGGGYERRSGGYGSGGGGGGRGYGGGGRREGGGYGGGDGGSYGGGGGGW | – | binds
